The text below walks through data of patent publication US20210017265A1 (RIKEN, published 2021).

The target of experiment [1] is human TGF-β1-LAP (amino acid residues position-30 to position-390), recombinant, Example 4 (human) (UniProt P01137). Nature of the experiment: SPR, Biacore T200; antibody immobilised on CM5, analyte 1.56-25 nM.
Experiment [2] has as its target complex of human TGF-β1 LAP-D and A2D109 antibody Fab fragment (human) (UniProt P01137). The experiment can be described thus: SPR, Biacore T200; antibody immobilised on CM5, analyte is the preformed LAP/A2D109 Fab complex, 1.56-25 nM. (Surface plasmon resonance follows binding to a sensor surface in real time, without labels.)
Experiment [3] concerns the target T1, human TGF-β1-LAP (amino acid residues position-30 to position-390), recombinant, Example 4 (human, UniProt P01137 30-390).
T1 construct: Expressed in HEK293F cells behind an Igk signal with a TEV-cleavable His tag, which was cut off; Stated molecular weight 41653 Da; also called human TGF-β1 LAP-D; TGF-β LAP
Nature of the experiment: SPR, Biacore T200; antibody immobilised on CM5, analyte 1.56-25 nM. The procedure: (§1) Each of the anti-LAP-D antibody (A10) and the BAM2462 antibody was immobilized on a Biacore (registered trademark) sensor chip Series S Sensor Chip CM5 (manufactured by GE Healthcare). The amounts of these antibodies immobilized were 2027 RU and 310 RU, respectively. Each of a solution of human TGF-β1 LAP and a solution of a complex of human TGF-β1 LAP and A2D109 Fab was diluted with a buffer composed of 10 mM of HEPES-NaOH (pH 7.5), 150 mM of NaCl, 3 mM of EDTA and 0.005% of Surfactant P-20 to prepare solutions having various concentrations. Each of these solutions was fed to Biacore (registered trademark) T200 (manufactured by GE Healthcare). The analyte concentration in each of the solutions and the measurement conditions are shown below. Measurement data were analyzed using Biacore (registered trademark) Evaluation software to acquire date on the affinity of each of the antibodies.

The target of experiment [4] is T2, complex of human TGF-β1 LAP-D and A2D109 antibody Fab fragment (human, UniProt P01137 30-390).
T2 construct: Preformed complex, mixed 1:1 by moles and purified by gel filtration; Stated molecular weight 89514 Da; Used as the SPR analyte; also called TGF-β LAP-A2D109Fab; complex of human TGF-β1 LAP and A2D109 Fab
T2 sequence (P01137 30-390, one chain of several): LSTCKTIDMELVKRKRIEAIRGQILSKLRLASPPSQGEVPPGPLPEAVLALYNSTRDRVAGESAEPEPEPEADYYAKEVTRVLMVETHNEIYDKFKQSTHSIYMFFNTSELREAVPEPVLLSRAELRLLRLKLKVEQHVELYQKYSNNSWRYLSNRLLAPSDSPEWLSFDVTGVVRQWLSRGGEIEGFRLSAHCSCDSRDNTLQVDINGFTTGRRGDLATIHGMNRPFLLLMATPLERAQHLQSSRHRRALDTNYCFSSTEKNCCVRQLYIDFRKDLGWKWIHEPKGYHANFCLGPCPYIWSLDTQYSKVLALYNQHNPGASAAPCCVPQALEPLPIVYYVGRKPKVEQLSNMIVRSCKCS
The experiment can be described thus: SPR, Biacore T200; antibody immobilised on CM5, analyte is the preformed LAP/A2D109 Fab complex, 1.56-25 nM. As for the experimental part:
as §1

Experiment [5] deals with T1, human TGF-β1-LAP (amino acid residues …). The experiment can be described thus: complex formation, gel filtration. The procedure:
A Fab fragment (A2D109 Fab) was prepared from the A2D109 antibody using Pierce (trademark) Mouse IgG1 Fab and F(ab′)2 Preparation Kit (manufactured by Thermo Fisher). The concrete operation of the procedure was carried out in accordance with the manual included in the kit. A reaction solution produced by the procedure was purified by gel filtration using Superdex 200 Increase 10/300 GL (manufactured by GE Healthcare). A 50-kDa elution fraction was collected, and the fraction was used as A2D109 Fab. Purified recombinant TGF-β1-LAP and purified A2D109 Fab were mixed together at a molar mixing ratio of 1:1. A complex thus produced was purified by gel filtration chromatography (HiLoad 16/600 Superdex 200 pg, manufactured by GE Healthcare) using a column equilibrated with a buffer composed of 20 mM Tris-HCl (pH 8.0), 150 mM NaCl and 10% glycerol.
A general note: SEC sorts molecules by how far they enter the pores of the column.

complex of human TGF-β1 LAP-D and A2D109 antibody Fab fragment (human), sequence (P01137 30-390, one chain of several): as above
T1 sequence (P01137 30-390): as the sequence (P01137 30-390, one chain of several) above
human TGF-β1-LAP (amino acid residues position-30 to position-390), recombinant, Example 4 (human), sequence (P01137 30-390): as the sequence (P01137 30-390, one chain of several) above

As usually defined, the Kd is the constant that tells how readily two partners part at equilibrium. A word on the koff: it is the rate constant with which the complex falls apart. The kon is the rate constant with which the complex forms. Take “anti-human LAP TGF-β1 antibody (BAM2462, manufactured by R&D Systems)”: in experiment [1], the Kd was determined as 0.0167 nM, the koff came out at 2.34e-05 s⁻¹ and the kon was 1.4e+06 M⁻¹ s⁻¹. Moreover, in experiment [2], the Kd was 0.345 nM, the koff is 0.000154 s⁻¹ and the kon came out at 447000 M⁻¹ s⁻¹.

B1: anti-LAP-D antibody (A10) (antibody, mouse IgG1, kappa, V domains shown)
VH: QVQLQQPGAELVRPGASVKLSCKTSGYSFTRFWMNWVRQRPGQGLEWIGMIHSSDSITRLNQKFKDKATLTLDYSSSTAYMQLSSPTSEDSAVYYCARGYDEYSAMDYWGQGTSVPVSS
VL: DIQMTQSPSSLSASLGERVSLTCRASHEISGYLGWLQRQPDGTIKRLIYAASTLDSGVPKRFSGSRSGSDYSLTISSLESEDFADYYCLQYASYPFTFGSGTKLEVKR
notes: Biotin-labelled when used as ELISA detection antibody; immobilised on a CM5 chip in SPR; also called isolated monoclonal antibody of the present embodiment
As to B1, in experiment [3], the equilibrium dissociation constant (Kd) is 0.214 nM, the off-rate (koff) is 4.17e-05 s⁻¹ and the kon was 195000 M⁻¹ s⁻¹. In experiment [4], the koff was found to be 0.000201 s⁻¹ and the kon worked out at 304000 M⁻¹ s⁻¹.

B2: A2D109 antibody Fab fragment (Fab, V domains shown)
VH: EVQLQQSGAELVRPGASVKLSCKASGYTFTSYWMNWVKQRPGQGLEWIGMIDPSDSETHYNQMFKDKATLTVDKSSSTAYMQLSSLTSEDSAVYYCVNWPYALDYWGQGTSVTVSS
VL: QIVLTQSPAIMSASPGEKVTMTCSASSSVSYMHWFQQKPGTSPKLWIYSTSNLASGVPARFSGSGSGTSYSLTISRMEAEDAATYYCQQRSSYPFTFGSGTKLEIKR
notes: Fab made from the mouse A2D109 antibody with a Mouse IgG1 Fab preparation kit; 50-kDa gel filtration fraction; the constant parts of the Fab are not; also called A2D109 Fab; A2D109Fab
As to B2, in experiment [5], the binding result was “binds”.
